± gives the half width of the 95% confidence interval.
Columns and labels:
[1] = folding stability dG unfold from chymotrypsin proteolysis; higher = more stable
Protocol: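 Folding stability of de novo designed mini-proteins (<80 aa, no Cys; designed by TrROS, TrMRF, ProteinMPNN and the joint model) was measured by cDNA display proteolysis with trypsin and chymotrypsin. Each protease was used at 11 concentrations in a threefold dilution series plus a no-protease condition. K50 was inferred by Bayesian fitting of sequencing counts, and dG unfold was derived against a sequence-predicted unfolded-state K50 (Tsuboyama et al. method). Sequences shown include variable-length N-terminal GS-type padding (SAGGSAGG...) inside a display construct carrying a PA tag. Rows were kept only if the AF2 dimer inter-PAE was >15, to exclude likely homo-oligomers.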

[2] = folding stability dG unfold (combined trypsin and chymotrypsin); higher = more stable
Method in brief: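 Mini-proteins designed to be under 80 residues and free of cysteine were carried in a PA-tagged cDNA display construct and digested with trypsin and with chymotrypsin. Each protease was applied at 11 threefold-diluted concentrations, alongside a no-protease condition, before sequencing. K50 came from Bayesian fitting of the sequencing counts, and unfolding free energy was obtained by comparing it with a sequence-predicted unfolded-state K50 and a shared folded-state K50, for each protease separately or for both together. Designs were retained only if their AlphaFold2 dimer inter-PAE exceeded 15.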

Sequence | folding stability dG unfold [1] [kcal/mol] | folding stability dG unfold [2] [kcal/mol]
SAGGSMTVSTAPDGTLKVYDPATGKLNPLPVPPVPLVVSRSVQPDKGVVITTTTTPSGEVTVSTTALSAGGS [r16_453_JUSTAS] | 0.394 ± 0.06 | -0.159 ± 0.075
SAGGMIRRITIYITDPGPSAPATTTTITVDVPPDRPDVPDEEVAQRVAESIAPKTGATATVEKIEEVSAGGS [r8_101_JUSTAS] | 0.406 ± 0.071 | -0.159 ± 0.15
SAGGSAGGSAGEIVIDVEPNMTVEEVKKRIKALAEELKKEKGLEIKKIEIKEGMSVEELLSAGGSAGGSAGG [r17_43_TrROS_Hall] | 0.225 ± 0.077 | -0.00172 ± 0.13
SAGGSSNVGEVTIEIREPVNPERFVDPEYREKAIEEMKEKAEAKAEEIKKENPNVKVTVNISLLEPGSAGGS [r8_183_JUSTAS] | 0.659 ± 0.07 | -0.00749 ± 0.36
SAGGSAGGSQKPTIEKEGGRYYIRNPDNGKSFPINIEREDNEWKFEFGDGEITIPGEFEIQRRSAGGSAGGS [r12_683_TrROS] | -0.308 ± 0.14 | < -1
SAGGSAGMRMQIQIPNDEIPPEKIEDALQEYGWNPTDVYPPDNGVSVTFEMDPGDMNKLMEAIKKLSAGGSA [r15_161_TrROS] | 0.843 ± 0.29 | 0.107 ± 0.35
SAGGSAGGSPAEITREEAVELAYETLPATEPAVFVFADPRLLVVYPDGADPSRNRVVEVPLLDSAGGSAGGS [r12_648_TrMRF] | -0.339 ± 0.17 | -0.741 ± 0.22
SGMEEIKIEVLSTETDESGTTYTETKIVLPDGKVIEATMTTTTVPDAAGNPVAVETLTLKDKTYTRTIPLSA [r9_271_JUSTAS] | 0.448 ± 0.12 | 0.101 ± 0.17
SAGGSAGGSAGASSLTLEELLKLHPGTVVRKERVELVEGKLVIDLVVEKVDPDTDKLTPESAGGSAGGSAGG [r11_20_JUSTAS] | 0.893 ± 0.043 | 0.409 ± 0.14
PGEMVPIEWPVKVRVRDPNGPGNKKREVEIPIEYPYPPGQKDPEQMLEMAHELAEELAEKEGPKDVEIEPIS [r1_300_TrROS] | 0.271 ± 0.13 | -0.474 ± 0.31
SAGGSAGGSAGGRPIPLDEFRDMPPNWKIEFNNGKEVEIPADDIKKPIDKGDTVRIEPVPSAGGSAGGSAGG [r7_643_TrROS] | 0.705 ± 0.024 | 0.188 ± 0.098
SAGGSSVKVVKTEVTEDPATGLTTVTETFENGAKATFTIDPATGTVPGETEYPDKKVKYTGYDPLPPSAGGS [r8_363_JUSTAS] | 0.588 ± 0.15 | -0.111 ± 0.31
SAGGSGSRIVVETITEYEVFETPTGKKKTKVFKTKKIVTETVPMSPADVAAYEAALAEGLGPGALASAGGSA [r2_327_JUSTAS] | 0.714 ± 0.16 | -0.234 ± 0.17
SAGGSAGGSAGGSGFILKESPDSVLSYDAITGETKKVPSKDVVLEYDPNNGVYTLTVSKSAGGSAGGSAGGS [r4_127_JUSTAS] | 0.639 ± 0.12 | 0.168 ± 0.17
SAGGSAGGSAGKALVFDSPEDLVEKLKENGVELTDIAEVDAPGGPVVLAPIEGIPKPGFGSAGGSAGGSAGG [r11_141_TrMRF] | 0.633 ± 0.065 | 0.28 ± 0.16
SAGGPAGEEVPVRITARIYMPDPDGKMHSHEIPIDIPMPVDELKEKLIKEIMDEHGYHITEIDIEPYSAGGS [r16_511_TrROS] | -0.432 ± 0.21 | -0.711 ± 0.25
SAGGSAGGSAMPIPKVLVLKDEGTLEEAREAALKYVKEDEKVIVKIGDKEIVIPAEELKKKSAGGSAGGSAG [r3_50_TrMRF] | -0.237 ± 0.5 | < -1
SAGGMPATLEVRLPDGAGAVGVVRADDPDEIIEAARAIPADAPVVLTTDDPAYGRLFLEAGFDVVTLESAGG [r13_476_TrMRF] | 0.241 ± 0.066 | -0.138 ± 0.16
SAMVPLEEAAKRVAEELGLEYTEITKIVPGTGELIVEFPGKKLTVTQDPATGSTTVEETFYDPETGVKKSAG [r14_270_JUSTAS] | -1.35 ± 0.28 | < -1
SPKPFEMSIQIPGITPQALEKAVELARKDGWVENEIEPDPENNNVQIDVEMRGTPEKMHRAQNAIQEAIKSA [r9_652_TrROS] | 0.197 ± 0.18 | -0.386 ± 0.21
SAGGSAGGSEEVVRTETSTSTTPDGKRVKTTTTTLPTPTTVTTTTVYAPGGEVLETTTTTTAASAGGSAGGS [r12_727_JUSTAS] | -0.123 ± 0.2 | < -1
SAGKLVVPILLEFPPGATLEEAKEAVEEAVEKLKESFPNAPDIEIKLVDVKVFKTEDDRYLVLALIEVGSAG [r5_985_TrMRF] | 4.51 ± 0.23 | 4.55 ± 0.43
SAGGSAGGSAIPPDAPVEVPVRVRVGGEEFDVTATLTARPDGSVGVDVDVDVPADEAEIEPASAGGSAGGSA [r18_428_TrMRF] | 0.118 ± 0.32 | < -1

— the supplement of paper PMC12764529
